Reference: the Immune Epitope Database (IEDB)

Key:
[1] = biological target: HLA-B*18:01; assay: IEDB peptide-MHC binding, purified MHC/competitive/radioactivity; filed as Kd, often an IC50 or EC50 that approximates it; ≥ and ≤ were set here for values at or beyond the usual limits of such assays
[2] = biological target: HLA-B*40:01; assay: as above
[3] = biological target: HLA-B*40:02; assay: as above
[4] = biological target: HLA-B*44:02; assay: as above
[5] = biological target: HLA-B*44:03; assay: as above
[6] = biological target: HLA-B*45:01; assay: as above
[7] = biological target: HLA-B*07:02; assay: as above
[8] = biological target: HLA-B*35:01; assay: as above
[9] = biological target: HLA-B*40:01; assay: IEDB peptide-MHC binding, purified MHC/direct/fluorescence; filed as Kd, often an IC50 or EC50 that approximates it; ≥ and ≤ were set here for values at or beyond the usual limits of such assays; settings: source organism: Mycobacterium avium subsp. paratuberculosis
[10] = biological target: HLA-B*07:02; assay: as above; settings: source organism: Homo sapiens
[11] = biological target: HLA-A*26:01; assay: IEDB peptide-MHC binding, purified MHC/competitive/fluorescence; filed as Kd, often an IC50 or EC50 that approximates it; ≥ and ≤ were set here for values at or beyond the usual limits of such assays; settings: source organism: Pan troglodytes
[12] = biological target: HLA-B*15:01; assay: as above; settings: source organism: Pan troglodytes
[13] = biological target: HLA-B*51:01; assay: as above
[14] = biological target: HLA-A*02:06; assay: IEDB peptide-MHC binding, purified MHC/competitive/radioactivity; filed as Kd, often an IC50 or EC50 that approximates it; ≥ and ≤ were set here for values at or beyond the usual limits of such assays
[15] = biological target: HLA-A*68:02; assay: as above
[16] = biological target: HLA-B*51:01; assay: as above
[17] = biological target: HLA-B*53:01; assay: as above; settings: source organism: Dengue virus 3 Martinique/1243/1999
[18] = biological target: HLA-A*02:02; assay: as above; settings: source organism: Trypanosoma cruzi
[19] = biological target: HLA-A*02:03; assay: as above; settings: source organism: Trypanosoma cruzi
[20] = biological target: HLA-A*24:03; assay: IEDB peptide-MHC binding, purified MHC/direct/fluorescence; filed as Kd, often an IC50 or EC50 that approximates it; ≥ and ≤ were set here for values at or beyond the usual limits of such assays; settings: source organism: Mycobacterium tuberculosis variant bovis
[21] = source organism: SARS coronavirus Tor2
[22] = source organism: Dengue virus 4 Philippines/H241/1956
[23] = source organism: Mammarenavirus machupoense
[24] = source organism: Mammarenavirus guanaritoense
[25] = source organism: Dengue virus 3 Martinique/1243/1999
[26] = source organism: Dengue virus 1 Brazil/97-11/1997
[27] = source organism: Trypanosoma cruzi
[28] = source organism: Dengue virus 2 Jamaica/1409/1983

HEFVDEFYAY
Kd [1, 21]: 0.0442 µM
Kd [2, 21]: 0.835 µM
Kd [3, 21]: 0.331 µM
Kd [4, 21]: 3.5 µM
Kd [5, 21]: 0.0859 µM
Kd [6, 21]: 7.21 µM

IEELFYSYA
Kd [1, 21]: 3.96 µM
Kd [2, 21]: 16 µM
Kd [3, 21]: 3.06 µM
Kd [4, 21]: 1.77 µM
Kd [5, 21]: 4.6 µM
Kd [6, 21]: 0.0495 µM

IPKAYAGPF
Kd [7, 22]: 0.00732 µM
Kd [8, 22]: 0.29 µM

KEHKGVGFL
Kd [9]: 0.0303 µM

KEPQKPLVL
Kd [1, 23]: ≥ 77.5 µM
Kd [2, 23]: 15.8 µM
Kd [3, 23]: 0.401 µM
Kd [4, 23]: 18 µM
Kd [5, 23]: ≥ 23.8 µM
Kd [6, 23]: ≥ 70.8 µM

KVRDRNFQL
Kd [10]: 0.0088 µM
Kd [11]: ≥ 20 µM
Kd [12]: ≥ 20 µM
Kd ([13]; source organism: Pan troglodytes): ≥ 20 µM

LEREQIPTLI
Kd [1, 24]: ≥ 57.5 µM
Kd [2, 24]: 2.75 µM
Kd [3, 24]: 0.559 µM
Kd [4, 24]: 19.6 µM
Kd [5, 24]: 12.8 µM
Kd [6, 24]: 9.71 µM

LPWTSGATT
Kd [7, 25]: 0.0258 µM
Kd [8, 25]: 1.3 µM

LVMLLVHYAI
Kd [14, 22]: 0.151 µM
Kd [15, 22]: 1.26 µM

MPSMKRFRKE
Kd [8, 25]: 14 µM
Kd [16, 25]: ≥ 69.6 µM
Kd [17]: 10.9 µM

MTCIAVGMV
Kd [15, 26]: 0.00763 µM

MTYLPAWQV
Kd ([13]; source organism: Yersinia pestis Nepal516): ≥ 20 µM

PPFGESYIV
Kd [16, 26]: 9.84 µM

QEAYYRARAG
Kd [1, 21]: ≥ 36.1 µM
Kd [2, 21]: 12.7 µM
Kd [3, 21]: 0.963 µM
Kd [4, 21]: 0.954 µM
Kd [5, 21]: 0.411 µM
Kd [6, 21]: 0.607 µM

QECNNMHLST
Kd [1, 21]: ≥ 70.5 µM
Kd [2, 21]: 15.2 µM
Kd [3, 21]: 0.595 µM
Kd [4, 21]: 5.61 µM
Kd [5, 21]: 7.12 µM
Kd [6, 21]: 0.636 µM

QEKAPDVGEL
Kd [1, 23]: ≥ 44.6 µM
Kd [2, 23]: 13 µM
Kd [3, 23]: 1.07 µM
Kd [4, 23]: 2.34 µM
Kd [5, 23]: ≥ 20.9 µM
Kd [6, 23]: 7.03 µM

QLKDKADFCI
Kd ([14]; source organism: Homo sapiens): ≥ 32.1 µM
Kd ([15]; source organism: Homo sapiens): 13.4 µM

REAACCHLA
Kd [1, 21]: ≥ 31.4 µM
Kd [2, 21]: 0.236 µM
Kd [3, 21]: 0.0975 µM
Kd [4, 21]: 3.03 µM
Kd [5, 21]: 1.91 µM
Kd [6, 21]: 0.0114 µM

RPISEKEENM
Kd [7, 25]: 0.135 µM
Kd [8, 25]: 0.502 µM

RVSRPTTVV
Kd [18]: 6.2 µM
Kd [19]: 0.105 µM
Kd [14, 27]: 1.34 µM
Kd [15, 27]: 0.2 µM

SEVAVLYQDV
Kd [1, 21]: 3.11 µM
Kd [2, 21]: 0.962 µM
Kd [3, 21]: 0.134 µM
Kd [4, 21]: 1.12 µM
Kd [5, 21]: 0.104 µM
Kd [6, 21]: 0.2 µM

SYYPDQKSL
Kd [20]: 0.0084 µM

TALTGATEI
Kd [16, 28]: 0.623 µM

TEVVGNVIL
Kd [1, 21]: 5.87 µM
Kd [2, 21]: 0.0149 µM
Kd [3, 21]: 0.177 µM
Kd [4, 21]: 15.2 µM
Kd [5, 21]: 6.82 µM
Kd [6, 21]: 15.1 µM

TEYDGHINL
Kd ([1]; source organism: Variola virus): 0.0115 µM
Kd ([2]; source organism: Variola virus): 0.00619 µM
Kd ([3]; source organism: Variola virus): 0.000998 µM
Kd ([4]; source organism: Variola virus): 0.0583 µM
Kd ([5]; source organism: Variola virus): 9.88 µM
Kd ([6]; source organism: Variola virus): 0.391 µM

TPPGATDPF
Kd [7, 22]: 1.07 µM
Kd [8, 22]: 0.132 µM

TPQAPTSEIQ
Kd [7, 26]: 0.808 µM

TPRMCTREE
Kd [7, 28]: 1.93 µM

TVHADTGCAV
Kd [15, 22]: 0.0861 µM

VPNYNMIIM
Kd [7, 26]: 0.054 µM
Kd [8, 26]: 0.0135 µM
Kd [16, 26]: 0.879 µM

WEVGKPRPPL
Kd [1, 21]: ≥ 23.9 µM
Kd [2, 21]: 0.0159 µM
Kd [3, 21]: 0.0186 µM
Kd [4, 21]: 5.92 µM
Kd [5, 21]: 7.21 µM
Kd [6, 21]: ≥ 59.6 µM
